According to PMC4635569, “Complement Evasion Mediated by Enhancement of Captured Factor H: Implications for Protection of Self-Surfaces from Complement” (The Journal of Immunology Author Choice, 2015):
Where a chain is given by its changes, count along the chain named. In names and notes the source's numbering stands.

B1: plasma-derived human complement factor H (natural protein)
chain: EDCNELPPRRNTEILTGSWSDQTYPEGTQAIYKCRPGYRSLGNVIMVCRKGEWVALNPLRKCQKRPCGHPGDTPFGTFTLTGGNVFEYGVKAVYTCNEGYQLLGEINYRECDTDGWTNDIPICEVVKCLPVTAPENGKIVSSAMEPDREYHFGQAVRFVCNSGYKIEGDEEMHCSDDGFWSKEKPKCVEISCKSPDVINGSPISQKIIYKENERFQYKCNMGYEYSERGDAVCTESGWRPLPSCEEKSCDNPYIPNGDYSPLRIKHRTGDEITYQCRNGFYPATRGNTAKCTSTGWIPAPRCTLKPCDYPDIKHGGLYHENMRRPYFPVAVGKYYSYYCDEHFETPSGSYWDHIHCTQDGWSPAVPCLRKCYFPYLENGYNQNYGRKFVQGKSIDVACHPGYALPKAQTTVTCMENGWSPTPRCIRVKTCSKSSIDIENGFISESQYTYALKEKAKYQCKLGYVTADGETSGSITCGKDGWSAQPTCIKSCDIPVFMNARTKNDFTWFKLNDTLDYECHDGYESNTGSTTGSIVCGYNGWSDLPICYERECELPKIDVHLVPDRKKDQYKVGEVLKFSCKPGFTIVGPNSVQCYHFGLSPDLPICKEQVQSCGPPPELLNGNVKEKTKEEYGHSEVVEYYCNPRFLMKGPNKIQCVDGEWTTLPVCIVEESTCGDIPELEHGWAQLSSPPYYYGDSVEFNCSESFTMIGHRSITCIHGVWTQLPQCVAIDKLKKCKSSNLIILEEHLKNKKEFDHNSNIRYRCRGKEGWIHTVCINGRWDPEVNCSMAQIQLCPPPPQIPNSHNMTTTLNYRDGEKVSVLCQENYLIQEGEEITCKDGRWQSIPLCVEKIPCSQPPQIEHGTINSSRSSQESYAHGTKLSYTCEGGFRISEENETTCYMGKWSSPPQCEGLPCKSPPEISHGVVAHMSDSYQYGEEVTYKCFEGFGIDGPAIAKCLGEKWSHPPSCIKTDCLSLPSFENAIPMGEKKDVYKAGEQVTYTCATYYKMDGASNVTCINSRWTGRPTCRDTSCVNPPTVQNAYIVSRQMSKYPSGERVRYQCRSPYEMFGDEEVMCLNGNWTEPPQCKDSTGKCGPPPPIDNGDITSFPLSVYAPASSVEYQCQNLYQLEGNKRITCRNGQWSEPPKCLHPCVISREIMENYNIALRWTAKQKLYSRTGESVEFVCKRGYRLSSRSHTLRTTCWDGKLEYPTCAKR
notes: complement factor H (FH), human, 20 CCP modules, plasma-derived; Glycosylated plasma protein; monomer of 155 kDa by SEC-MALS; also called FH; plasma-purified human FH; source: bought: Complement Technologies, plasma-derived, used without further purification
B2: recombinant human FH with a wild-type sequence (natural protein)
chain: B1 chain
notes: Secreted from P. pastoris, so the native signal peptide is probably absent (surmise); also called rFH; recombinant wild-type FH; source: Pichia pastoris (fermentor), purified after enzymatic deglycosylation
B3: recombinant FH(D1119G) (natural protein)
chain: B1 chain with D1101G
notes: complement factor H, human, full-length, with the aHUS-linked substitution D1119G (CCP 19); Expression-optimized synthetic DNA; Secreted from P. pastoris, so the native signal peptide is probably absent (surmise); also called rFH(D1119G); rFH; source: Pichia pastoris (vector pPICZαB), purified as described for rFH

These binders were tested against T1, human C3b (human, UniProt P01024 23-667; P01024 749-1663) (assay: SPR; C3b (~250 RU) or C3d (~70 RU) amine coupled to adjacent flow cells of a Biacore C1 chip; FH preincubated with or without a 2-fold molar excess of PspCN injected (90 s, 30 μl/min, 400 s dissociation); 1:1 binding model). Details: both partners purified.
T1 construct: Amine coupled to the SPR chips (C1 or CM5); source: bought: Complement Technologies, plasma-derived, used without further purification
T1 sequence (P01024 23-667, chain 1 of 2): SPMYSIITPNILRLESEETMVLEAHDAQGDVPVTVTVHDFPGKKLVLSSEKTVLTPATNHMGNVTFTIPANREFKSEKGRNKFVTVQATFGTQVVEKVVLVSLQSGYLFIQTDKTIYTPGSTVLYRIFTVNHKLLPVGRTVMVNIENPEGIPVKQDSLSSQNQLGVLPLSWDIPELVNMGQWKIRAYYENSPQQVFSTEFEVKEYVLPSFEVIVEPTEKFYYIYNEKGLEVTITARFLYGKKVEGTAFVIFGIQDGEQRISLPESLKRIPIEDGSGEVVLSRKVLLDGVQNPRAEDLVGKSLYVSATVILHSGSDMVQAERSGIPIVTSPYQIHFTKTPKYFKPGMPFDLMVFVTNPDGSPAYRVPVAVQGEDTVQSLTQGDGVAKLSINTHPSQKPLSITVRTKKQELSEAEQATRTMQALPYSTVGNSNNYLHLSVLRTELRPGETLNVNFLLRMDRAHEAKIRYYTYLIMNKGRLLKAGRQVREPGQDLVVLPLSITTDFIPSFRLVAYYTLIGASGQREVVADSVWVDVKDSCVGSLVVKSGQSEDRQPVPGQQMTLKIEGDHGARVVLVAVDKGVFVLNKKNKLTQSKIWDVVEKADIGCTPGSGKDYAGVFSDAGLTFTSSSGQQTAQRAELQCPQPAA
T1 sequence (P01024 749-1663, chain 2 of 2): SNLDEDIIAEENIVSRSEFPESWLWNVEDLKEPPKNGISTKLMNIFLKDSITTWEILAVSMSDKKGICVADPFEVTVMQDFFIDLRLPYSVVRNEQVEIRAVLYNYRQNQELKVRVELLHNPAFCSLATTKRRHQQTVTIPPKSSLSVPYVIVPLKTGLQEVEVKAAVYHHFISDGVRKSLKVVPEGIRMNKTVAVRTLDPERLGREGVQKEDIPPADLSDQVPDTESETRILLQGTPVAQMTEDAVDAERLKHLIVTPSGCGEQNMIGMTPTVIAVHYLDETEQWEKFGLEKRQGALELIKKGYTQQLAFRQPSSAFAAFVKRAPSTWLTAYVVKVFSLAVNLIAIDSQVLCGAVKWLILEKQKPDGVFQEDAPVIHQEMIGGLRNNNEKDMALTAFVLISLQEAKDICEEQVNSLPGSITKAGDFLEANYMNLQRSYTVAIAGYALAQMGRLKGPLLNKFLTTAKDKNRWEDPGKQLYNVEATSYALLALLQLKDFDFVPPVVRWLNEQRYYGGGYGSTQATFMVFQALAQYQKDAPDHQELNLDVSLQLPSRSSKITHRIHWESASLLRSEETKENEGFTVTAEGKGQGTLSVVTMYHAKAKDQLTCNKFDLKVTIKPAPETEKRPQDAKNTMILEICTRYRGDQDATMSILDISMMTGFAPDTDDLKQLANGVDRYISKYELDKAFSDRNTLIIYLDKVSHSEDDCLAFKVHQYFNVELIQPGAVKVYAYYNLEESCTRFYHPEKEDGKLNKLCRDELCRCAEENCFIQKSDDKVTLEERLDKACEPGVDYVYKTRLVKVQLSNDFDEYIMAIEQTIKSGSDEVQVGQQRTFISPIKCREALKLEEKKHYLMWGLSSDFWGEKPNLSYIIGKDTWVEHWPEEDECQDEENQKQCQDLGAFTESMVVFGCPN
For B1, the Kd was 490 nM. In the case of B2, the Kd is reported as 600 nM. For B3, the Kd was 540 nM.
